Measured values as given in patent US20250066451A1 (SWEDISH ORPHAN BIOVITRUM AB PUBL, published 2025).
One block for each binder: values may come before it.

What was measured:
[1] = target: T1, Human IL-1R-I-Fc (Creative BioMart cat. no. IL1RI-771H) (human, UniProt P14778 18-332, limits assumed); test: ELISA screening, periplasmic extract
T1 construct: Bought protein; also called hIL-1R-I-Fc; hIL-1RI-Fc; not shown: Fc part of the bought fusion
T1 sequence (looked up): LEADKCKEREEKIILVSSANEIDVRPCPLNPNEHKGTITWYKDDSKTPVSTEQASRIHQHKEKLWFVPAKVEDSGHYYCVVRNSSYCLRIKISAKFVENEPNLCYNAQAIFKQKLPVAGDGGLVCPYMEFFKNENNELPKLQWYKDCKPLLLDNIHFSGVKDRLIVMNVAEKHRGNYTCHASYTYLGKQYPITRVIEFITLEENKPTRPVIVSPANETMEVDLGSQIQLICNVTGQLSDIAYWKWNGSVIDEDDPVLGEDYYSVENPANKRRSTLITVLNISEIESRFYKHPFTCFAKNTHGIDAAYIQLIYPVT

[2] = target: T1, Human IL-1R-I-Fc (Creative BioMart cat. …); test: ELISA titration; Z-ABD periplasmic extract, hIL-1R-I-Fc 100-0.01 nM

binding result [1]: no binding (tested: 1 nM hIL-1R-I-Fc)
B1: ABD001 (wild type albumin binding domain), periplasmic extract (other)
chain: LAEAKVLANRELDKYGVSDYYKNLINNAKTVEGVKALIDEILAALP
notes: Negative control; also called ABD negative control

EC50 [2]: 0.33 nM
B2: Z12917 as Z-ABD fusion (periplasmic extract) (designed binder)
chain: AQHDEALEVDAKYAKEARQAYAEIYLLPNLTRRQYTAFIRKLLDDPSQSSELLSEAKKLNDSQAPKVDYVLAEAKVLANRELDKYGVSDYYKNLINNAKTVEGVKALIDEILAALPYVPG
